# According to patent US20100291145A1:
# Target: human melanoma gp100(46-58) peptide, Ac-…-NH2 (human)
# Assay: ELISA, gp100(46-58) peptide on plate; naive DR4-IE Tg serum; anti-IgG2a detection
substance,measurement,value
serum of naive DR4-IE Tg mice (control of Tables 23.9 and 23.10) (antibody),ELISA IgG2a signal at serum dilution 1:20,0.063
same,ELISA IgG2a signal at serum dilution 1:60,0.058
same,ELISA IgG2a signal at serum dilution 1:180,0.056
same,ELISA IgG2a signal at serum dilution 1:540,0.055
